Experimental data published in patent US20250228951A1, “NOVEL-PEPTIDE-BASED ANTICANCER IMMUNOTHERAPEUTIC AGENT” (TWINPIG BIOLAB INC., priority 2022, published 2025).

How the values were obtained:
[1] = system: M2 macrophages; assay: Flow cytometry of FITC-conjugated melittin on THP-1-derived M0, M1 and M2 macrophages; format: cell-based, human; details: 50 nM FITC-conjugated melittin, 1 hour; M2 macrophages compared to the other macrophage types
Method: To confirm whether the melittin fabricated in Example 1 specifically bound to M2 tumor-associated macrophages (M2 TAMs), a human monocyte cell line THP-1 was differentiated into M0, M1, and M2 macrophages, and treated with FITC-conjugated melittin, and then confirmed by flow cytometry. Specifically, THP-1 cells were treated with 100 nM phorbol 12-myristate 13-acetate (PMA) at 37° C. for 24 hours (M0 macrophages), and the differentiated M0 macrophages were incubated with 100 nM LPS and 20 ng/ml IFN-γ at 37° C. for 72 hours to be differentiated into M1 macrophages (M1), and incubated with 20 ng/ml IL-4 and IL-13 at 37° C. for 72 hours to be differentiated into M2 macrophages (M2). The differentiated cells were treated with 50 nM FITC-conjugated melittin for 1 hour, detected with BD FACS CantoII instruments (BD biosciences, San Jose, CA, USA), and analyzed with FlowJo software (BD biosciences).

[2] = system: M2 macrophages in which ITGB2 expression was suppressed by Crispr/cas9; assay: CCK-8 cell viability in M2 macrophages with ITGB2 expression suppressed by Crispr/cas9; format: cell-based, human; details: Melittin-dKLA 1 μM, ITGB2 knocked down M2 macrophages
Method: As a cell model used to confirm whether apoptosis was induced through ITGB2 in M2 macrophages, a cell model in which the expression of ITGB2 was suppressed in M2 macrophages was fabricated using Crispr/cas9. Specifically, cells differentiated into M2 macrophages were cultured in an Opti-MEM medium. The Crispr/cas9 was mixed with Cas9 protein V2 (Thermo Fisher scientific) and gRNA (Genscript; ITGB2; Table 7) of a CRISPRMAX™ Reagent kit (Thermo Fisher scientific) and a Cas9 Plus™ Reagent (Thermo Fisher scientific), and a CRISPRMAX™ Reagent was diluted in the Opti-MEM medium, mixed together, and reacted for 5 to 10 minutes, and then added to cells differentiated into M2 macrophages and cultured at 37° C. for 2 to 3 days. Thereafter, the mRNA expression level of ITGB2 was confirmed.
To confirm whether Melittin-dKLA bound to ITGB2 to induce apoptosis in M2 macrophages, Melittin-dKLA (1 μM) was treated for 24 hours to M2 macrophages in which ITGB2 expression was suppressed by Crispr/cas9 fabricated in Example 7-1 above, and cell viability was analyzed using a CCK-8 assay. Specifically, Melittin-dKLA (1 μM) reacted with ITGB2 knockdown macrophages fabricated in Example 7-1 above for 1 hour. After the reaction, the medium was replaced and cultured at 37° C. for 24 hours. […] Absorbance was measured at 450 nm using a microplate reader (Molecular Devices). […]

[3] = system: M2 macrophages; assay: CCK-8 cell viability in M2 macrophages; format: cell-based, human; details: Melittin-dKLA 1 μM, control M2 macrophages
Method: To confirm whether Melittin-dKLA bound to ITGB2 to induce apoptosis in M2 macrophages, Melittin-dKLA (1 μM) was treated for 24 hours to M2 macrophages in which ITGB2 expression was suppressed by Crispr/cas9 fabricated in Example 7-1 above, and cell viability was analyzed using a CCK-8 assay. Specifically, Melittin-dKLA (1 μM) reacted with ITGB2 knockdown macrophages fabricated in Example 7-1 above for 1 hour. After the reaction, the medium was replaced and cultured at 37° C. for 24 hours. To determine cell viability, a CCK-8 reagent (Enzo Life Sciences) was added in 1/10 of the medium and reacted at 37° C. for 3 hours. Absorbance was measured at 450 nm using a microplate reader (Molecular Devices).
To confirm whether TB511 (TAMpep826-dKLA) induced apoptosis through ITGB2 in M2 macrophages, TB511 reacted with M2 macrophages in which ITGB2 expression was suppressed by Crispr/cas9 fabricated in Example 7-1.

[4] = biological target: ITGB2 protein immobilised on the SPR sensor chip (UniProt P05107)
Sequence of ITGB2 protein immobilised on the SPR sensor chip (P05107 23-700 limits assumed): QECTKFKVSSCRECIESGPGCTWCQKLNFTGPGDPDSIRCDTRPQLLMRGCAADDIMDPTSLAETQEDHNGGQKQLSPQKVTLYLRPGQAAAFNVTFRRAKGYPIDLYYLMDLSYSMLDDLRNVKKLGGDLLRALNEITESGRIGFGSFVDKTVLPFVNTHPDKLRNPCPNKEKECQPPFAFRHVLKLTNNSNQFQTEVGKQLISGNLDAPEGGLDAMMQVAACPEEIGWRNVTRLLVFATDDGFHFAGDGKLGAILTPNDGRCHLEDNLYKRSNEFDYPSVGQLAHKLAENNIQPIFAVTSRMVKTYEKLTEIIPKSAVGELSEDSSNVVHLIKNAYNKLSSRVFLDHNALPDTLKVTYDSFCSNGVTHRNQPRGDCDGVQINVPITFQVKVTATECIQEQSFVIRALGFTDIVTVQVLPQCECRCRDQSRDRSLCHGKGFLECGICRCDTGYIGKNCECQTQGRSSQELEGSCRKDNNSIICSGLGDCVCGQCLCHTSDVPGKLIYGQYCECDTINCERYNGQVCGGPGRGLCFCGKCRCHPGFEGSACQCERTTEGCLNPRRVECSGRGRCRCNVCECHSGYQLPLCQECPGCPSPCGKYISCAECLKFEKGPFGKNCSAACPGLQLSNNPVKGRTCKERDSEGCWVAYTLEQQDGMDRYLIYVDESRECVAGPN

`CC[C@H](C)[C@H](NC(=O)CN)C(=O)NCC(=O)N[C@@H](C)C(=O)N[C@H](C(=O)N[C@@H](CC(C)C)C(=O)N[C@@H](CCCCN)C(=O)N[C@H](C(=O)N[C@@H](CC(C)C)C(=O)N[C@H](C(=O)N[C@H](C(=O)NCC(=O)N[C@@H](CC(C)C)C(=O)N1CCC[C@H]1C(=O)N[C@@H](C)C(=O)N[C@@H](CC(C)C)C(=O)N[C@H](C(=O)N[C@@H](CO)C(=O)N[C@@H](Cc1c[nH]c2ccccc12)C(=O)N[C@H](C(=O)N[C@@H](CCCCN)C(=O)N[C@@H](CCCNC(=N)N)C(=O)N[C@@H](CCCCN)C(=O)N[C@@H](CCCNC(=N)N)C(=O)N[C@@H](CCC(N)=O)C(=O)N[C@@H](CCC(N)=O)C(N)=O)[C@@H](C)CC)[C@@H](C)CC)[C@@H](C)O)[C@@H](C)O)C(C)C)C(C)C` [Melittin] was tested, and the FITC-positive cells [1] was “significantly increased”.

In the case of “GIGAVLKVLTTGLPALISWIKRKRQQ-GGGGS-d[KLAKLAKKLAKLAK] (SEQ ID NO: 5), peptide with linker and drug dKLA attached to melittin [Melittin-dKLA]”, the cell viability [2] is reported as “the decrease in cell viability by Melittin-dKLA was suppressed” and the cell viability [3] is reported as “significantly reduced”.

In the case of Melittin-dKLA (peptide), the Ka [4] is reported as 1.27e+07 M⁻¹, the Kd [4] is reported as 78.6 nM and the koff [4] is reported as 0.00381 s⁻¹. For the same molecule, the kon [4] was 48500 M⁻¹ s⁻¹.
